Results on four molecules are retold here after publication PMC5607398, “Neisseria cinerea Expresses a Functional Factor H Binding Protein Which Is Recognized by Immune Responses Elicited by Meningococcal Vaccines” (Infection and Immunity, 2017).

The term Kd denotes a measure of binding affinity in units of concentration.

To fix the notation:
B1: Neisseria meningitidis V1.1 factor H binding protein (V1.1 fHbp), recombinant (natural protein)
chain: GGVAADIGAGLADALTAPLDHKDKGLQSLTLDQSVRKNEKLKLAAQGAEKTYGNGDSLNTGKLKNDKVSRFDFIRQIEVDGQLITLESGEFQVYKQSHSALTAFQTEQIQDSEHSGKMVAKRQFRIGDIAGEHTSFDKLPEGGRATYRGTAFGSDDAGGKLTYTIDFAAKQGNGKIEHLKSPELNVDLAAADIKPDGKRHAVISGSVLYNQAEKGSYSLGIFGGKAQEVAGSAEVKTVNGIRHIGLAAKQ
notes: source: E. coli BL21(DE3), pET21b, purified (HisTrap, anion exchange)

Experiment [1] has as its target full-length human CFH (Sigma) (UniProt P08603). As to the kind of experiment: ELISA. The following applies: read off a plot. A general note: In an ELISA, binding on a coated surface is turned into a signal by an enzyme label.
In experiment [2] the target is Neisseria cinerea CCUG 346T factor H binding protein (V1.110 fHbp), recombinant (Neisseria cinerea). The experiment is described as follows: SPR. For orientation: In SPR one partner is held on a chip, and binding of the other changes the refractive index at the surface.
The target of experiment [3] is T1, full-length human CFH (Sigma) (human, UniProt P08603 19-1231).
T1 construct: also called full-length CFH; source: bought: Sigma
The experiment is described as follows: ELISA; plates coated with recombinant fHbp (3 ug/ml); full-length human CFH (Sigma) in 2-fold dilutions from 10 ug/ml; detected with anti-CFH antibody. The following applies: both partners purified.

The target of experiment [4] is B1. The experiment is described as follows: SPR. The following applies: both partners purified.

On to “Neisseria meningitidis V1.1 factor H binding protein (V1.1 fHbp), recombinant (from UniProt Q9JXV4) I311A”, for which the response in experiment [1] (CFH 1.25 µg/ml (x position estimated), parent: est. 0.35) was 0.073 OD 450nm; in experiment [1] (CFH 2.5 µg/ml, parent: est. 0.40), 0.082 OD 450nm; in experiment [1] (CFH 5 μg/ml, parent: est. 0.40), 0.082 OD 450nm; in experiment [1] (CFH 5 µg/ml, parent: est. 0.41), 0.11 OD 450nm; in experiment [1] (CFH 10 µg/ml, parent: est. 0.47), 0.19 OD 450nm.

Take “recombinant CFH6–7 (CCP domains 6 and 7 of complement factor H) (from UniProt P08603 321-443) (domain or fragment)”: the Kd in experiment [2] was 3.5 nM.

For B1, in experiment [3], the binding result was “binds”.

B2: recombinant CFH6–7 (CCP domains 6 and 7 of complement factor H) (domain or fragment, human)
chain: TLKPCDYPDIKHGGLYHENMRRPYFPVAVGKYYSYYCDEHFETPSGSYWDHIHCTQDGWSPAVPCLRKCYFPYLENGYNQNYGRKFVQGKSIDVACHPGYALPKAQTTVTCMENGWSPTPRCI
In the case of B2, the Kd in experiment [4] turned out to be 3 ± 0.5 nM.
